From the supplement of paper PMC10899765

The sequences below were run on MCF10A (assay: 5+ nucleoli phenotype percent effect (relative to siNT 0% and siKIF11 100%); higher = more cells with five or more nucleoli). Conditions: 20 nM; 72 h.
Description: (§1)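 After 72 h, cells were fixed and stained with Hoechst and anti-fibrillarin, and nucleoli per nucleus were counted with CellProfiler. Values are plate-adjusted percent effect for the one-nucleolus and 5+ nucleoli phenotypes, normalised to siNT (0%) and to the positive controls siNOL11 or siKIF11 (100%), as the mean of biological triplicates. Percent viability is the nuclei count relative to siNT.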

Row | Sequence | 5+ nucleoli phenotype percent effect [%]
1 | UUUUGCAAUAUGUUCCUGAAUA [hsa-miR-450b-5p] | 14.4
2 | UUCUCCAAAAGAAAGCACUUUCUG [hsa-miR-515-5p] | 3.02
3 | CAACCACCACUGUCUCUCCCCAG [hsa-miR-6776-3p] | 48.4
4 | UGGAAGACUAGUGAUUUUGUUGU [hsa-miR-7-5p] | -32.4
5 | AUCAAGGAUCUUAAACUUUGCC [hsa-miR-561-5p] | -9.66
6 | AGGAGGGAGGAGAUGGGCCAAGUU [hsa-miR-1249-5p] | -22.4
7 | CAGGCGUCUGUCUACGUGGCUU [hsa-miR-3186-5p] | -8.59
8 | UUUUGCACCUUUUGGAGUGAA [hsa-miR-507] | -28
9 | CAGGCAGUGACUGUUCAGACGUC [hsa-miR-2682-5p] | -23.5
10 | GGAGACUGAUGAGUUCCCGGGA [hsa-miR-873-3p] | -5.61
11 | UUCUAGAUGAGAGAUAUAUAUA [hsa-miR-4777-5p] | -25.9
12 | GUGGGCUGGGCUGGGCUGGGCC [hsa-miR-3620-5p] | -31.1
13 | UGUGACUUUAAGGGAAAUGGCG [hsa-miR-3164] | 22
14 | ACCUUCUUGUAUAAGCACUGUGCUAAA [hsa-miR-1248] | 33.1
15 | GUGAAUUACCGAAGGGCCAUAA [hsa-miR-183-3p] | -32
16 | ACAGUCUGCUGAGGUUGGAGC [hsa-miR-622] | -4.39
17 | AGAUAUUUUGAGUGUUUGGAAUUG [hsa-miR-3145-3p] | -8.4
18 | AGAGCUUAGCUGAUUGGUGAAC [hsa-miR-27b-5p] | -22.4
19 | GGAGGCCGGGGUGGGGCGGGGCGG [hsa-miR-6089] | 53
20 | GAACGCGCUUCCCUAUAGAGGGU [hsa-miR-523-3p] | 23.3
21 | AAAAGCUGGGUUGAGAGGGCAA [hsa-miR-320b] | -10.2
22 | CUUCUCUUCUCUCCUUCCCAG [hsa-miR-6809-3p] | -23.7
23 | GAGGCUGAUGUGAGUAGACCACU [hsa-miR-3929] | -13.8
24 | AGGGGGCGGGCUCCGGCG [hsa-miR-4488] | 8.35
25 | UGAGGUGGUAGGAUGUAGA [hsa-miR-6134] | -36
26 | UGGAAAAAACUGGUGUGUGCUU [hsa-miR-3148] | -1.39
27 | ACCUGGCAUACAAUGUAGAUUU [hsa-miR-221-5p] | -26.8
28 | ACAGCAGGCACAGACAGGCAGU [hsa-miR-214-3p] | -1.88
29 | CCUCACCCAGCUCUCUGGCCCUCU [hsa-miR-6862-3p] | 15.4
30 | CAGGGCCUCACUGUAUCGCCCA [hsa-miR-4512] | 0.0146

What follows are sequences tested on MCF10A (assay: one-nucleolus phenotype percent effect (relative to siNT 0% and siNOL11 100%); higher = more cells with one nucleolus (ribosome biogenesis inhibition)). Conditions: 20 nM; 72 h.
Description: as §1

Row | Sequence | one-nucleolus phenotype percent effect [%]
31 | GGAUAUCAUCAUAUACUGUAAG [hsa-miR-144-5p] | -0.41
32 | UUGAGGAGACAUGGUGGGGGCC [hsa-miR-4689] | 12.3
33 | GGCGCGCCCAGCUCCCGGGCU [hsa-miR-4783-5p] | -16.4
34 | GGUAGAUUUUCCUUCUAUGGU [hsa-miR-376a-2-5p] | -26.7
35 | UUAGGCCGCAGAUCUGGGUGA [hsa-miR-1295a] | 8.73
36 | GAGGGCAGAGCCAGCUUCCUGA [hsa-miR-7843-5p] | 16.5
37 | GUGCAUUGUAGUUGCAUUGCA [hsa-miR-33a-5p] | -0.977
38 | AUCCCACCUCUGCCACCA [hsa-miR-1260a] | -2.14
39 | CACAGGCUUAGAAAAGACAGU [hsa-miR-4438] | -2.67
40 | AAAAGUAAUCGCGGUUUUUGUC [hsa-miR-548h-5p] | -19.1
41 | UCUCUGGAGGGAAGCACUUUCUG [hsa-miR-518c-5p] | 33.3
42 | UGGCAAACGUGGAAGCCGAGA [hsa-miR-4470] | 61
43 | UCACAAGUCAGGCUCUUGGGAC [hsa-miR-125b-2-3p] | 59.8
44 | UUCAUUUGGUAUAAACCGCGAUU [hsa-miR-579] | 45.1
45 | AUCGUGCAUCCCUUUAGAGUGU [hsa-miR-517a-3p] | 3.74
46 | AACCAGCACCCCAACUUUGGAC [hsa-miR-634] | -35.9
47 | UAAAGUGCUUAUAGUGCAGGUAG [hsa-miR-20a-5p] | -13.2
48 | UCUUGAAGUCAGAACCCGCAA [hsa-miR-4635] | 19.8
49 | UUGCAUAGUCACAAAAGUGAUC [hsa-miR-153] | -31.1
50 | AGUUGCCAGGGCUGCCUUUGGU [hsa-miR-6501-5p] | 5.87

Row | Sequence | one-nucleolus phenotype percent effect [%]
51 | UCUCUUCAUCUACCCCCCAG [hsa-miR-6515-3p] | 4.68
52 | UCAGCACCAGGAUAUUGUUGGAG [hsa-miR-3065-3p] | -25.2
53 | GUUUUACCACCUCCAGGAGACU [hsa-miR-2681-5p] | -33.4
54 | GUAGCACCUUGCAGGAUAAGGU [hsa-miR-5682] | -21.5
55 | UACUUUUCUAGGUUGUUGGGG [hsa-miR-5003-3p] | 55.6
56 | UCUGGGGAUGAGGACAGUGUGU [hsa-miR-4700-5p] | 29
57 | CACCUUUGUGUCCCCAUCCUGCA [hsa-miR-6782-3p] | -13.1
58 | AGGGCUUAGCUGCUUGUGAGCA [hsa-miR-27a-5p] | 23.8
59 | GGCUCAUGUGUCUGUCCUCUUC [hsa-miR-6847-3p] | -18
60 | UUUUGCAAUAUGUUCCUGAAUA [hsa-miR-450b-5p] | -22.9
61 | UUCUCCAAAAGAAAGCACUUUCUG [hsa-miR-515-5p] | -9.79
62 | CAACCACCACUGUCUCUCCCCAG [hsa-miR-6776-3p] | -24.4
63 | UGGAAGACUAGUGAUUUUGUUGU [hsa-miR-7-5p] | 25.5
64 | AUCAAGGAUCUUAAACUUUGCC [hsa-miR-561-5p] | 5.64
65 | AGGAGGGAGGAGAUGGGCCAAGUU [hsa-miR-1249-5p] | 45.9
66 | CAGGCGUCUGUCUACGUGGCUU [hsa-miR-3186-5p] | 27.8
67 | UUUUGCACCUUUUGGAGUGAA [hsa-miR-507] | 25.1
68 | CAGGCAGUGACUGUUCAGACGUC [hsa-miR-2682-5p] | 51.4
69 | GGAGACUGAUGAGUUCCCGGGA [hsa-miR-873-3p] | -6.55
70 | UUCUAGAUGAGAGAUAUAUAUA [hsa-miR-4777-5p] | 29.8

Row | Sequence | one-nucleolus phenotype percent effect [%]
71 | GUGGGCUGGGCUGGGCUGGGCC [hsa-miR-3620-5p] | 27.5
72 | UGUGACUUUAAGGGAAAUGGCG [hsa-miR-3164] | 19.5
73 | ACCUUCUUGUAUAAGCACUGUGCUAAA [hsa-miR-1248] | -15.4
74 | GUGAAUUACCGAAGGGCCAUAA [hsa-miR-183-3p] | 9.97
75 | ACAGUCUGCUGAGGUUGGAGC [hsa-miR-622] | 8.72
76 | AGAUAUUUUGAGUGUUUGGAAUUG [hsa-miR-3145-3p] | -11.7
77 | AGAGCUUAGCUGAUUGGUGAAC [hsa-miR-27b-5p] | 17.8
78 | GGAGGCCGGGGUGGGGCGGGGCGG [hsa-miR-6089] | -25.7
79 | GAACGCGCUUCCCUAUAGAGGGU [hsa-miR-523-3p] | -18.2
80 | AAAAGCUGGGUUGAGAGGGCAA [hsa-miR-320b] | 8.28
81 | CUUCUCUUCUCUCCUUCCCAG [hsa-miR-6809-3p] | 17.9
82 | GAGGCUGAUGUGAGUAGACCACU [hsa-miR-3929] | 14.1
83 | AGGGGGCGGGCUCCGGCG [hsa-miR-4488] | -5.44
84 | UGAGGUGGUAGGAUGUAGA [hsa-miR-6134] | 40.7
85 | UGGAAAAAACUGGUGUGUGCUU [hsa-miR-3148] | -7.81
86 | ACCUGGCAUACAAUGUAGAUUU [hsa-miR-221-5p] | 62.6
87 | ACAGCAGGCACAGACAGGCAGU [hsa-miR-214-3p] | 13.3
88 | CCUCACCCAGCUCUCUGGCCCUCU [hsa-miR-6862-3p] | -26.5
89 | CAGGGCCUCACUGUAUCGCCCA [hsa-miR-4512] | 18.5
